The source of these data is patent US20120316071A1 (published 2012).

Assay [1] concerns the target T1, rHuman EGF R/Fc Chimera, CF (R&D Systems Cat#344-ER) (human, UniProt P00533 25-645).
T1 construct: Bought protein; also called epidermal growth factor receptor
Briefly: ECL multispot (MSD), antigen spotted; blank spot of this well 261.

For assay [2], the target named is T2, rHuman HGF R/c-MET/Fc Chimera, CF (R&D Systems Cat#358-MT/CF) (human, UniProt P08581 25-932).
T2 construct: Bought protein; also called HGF R/Fc; hepatocyte growth factor receptor
The assay is described as above.

In assay [3] the target is T3, rHuman Notch-1/Fc Chimera, CF (R&D Systems Cat#3647-TK) (human, UniProt P46531 19-526).
T3 construct: Bought protein
Described as above.

Assay [4] addresses T4, rHuman CD44/Fc Chimera, CF (R&D Systems Cat#3660-CD) (human, UniProt P16070 21-220).
T4 construct: Bought protein
The description is as above.

Assay [5] deals with T5, rHuman IGF-1 sR, CF (R&D Systems Cat#391-GR) (human, UniProt P08069 31-932).
T5 construct: Bought soluble receptor; also called insulin-like growth factor-1 soluble receptor
The assay is described as above.

Assay [6] has as its target T6, rHuman P-Cadherin/Fc Chimera, CF (R&D Systems Cat#861-PC) (human, UniProt P22223 108-654).
T6 construct: Bought protein
Described as above.

In assay [7] the target is T7, rHuman Erythropoietin R/Fc Chimera, CF (R&D Systems Cat#963-ER) (human, UniProt P19235 25-250).
T7 construct: Bought protein; also called EPO R; EPO R/Fc
T7 sequence (looked up): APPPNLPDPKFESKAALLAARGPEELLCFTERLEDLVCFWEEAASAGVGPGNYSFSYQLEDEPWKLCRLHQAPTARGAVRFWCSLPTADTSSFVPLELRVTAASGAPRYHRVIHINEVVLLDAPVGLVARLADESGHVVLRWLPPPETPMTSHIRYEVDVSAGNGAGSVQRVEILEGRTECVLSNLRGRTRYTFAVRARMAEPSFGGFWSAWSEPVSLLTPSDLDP
The description is as above.

Assay [8] deals with T8, Recombinant Human DLL4 (R&D Systems Cat#1506-D4/CF) (human, UniProt Q9NR61 27-524).
T8 construct: Bought recombinant protein; also called delta-like protein 4; rHuman DLL4
The description is as above.

For assay [9], the target named is T9, rHuman ErbB2/Fc Chimera, CF (R&D Systems Cat#1129-ER) (human, UniProt P04626 23-652).
T9 construct: Bought protein; also called human epidermal growth factor 2 receptor
Described as above.

In assay [10] the target is T10, rHuman HGF R/c-MET/Fc Chimera, CF (R&D Systems Cat#358-MT/CF) (human, UniProt P08581 25-932). Briefly: ECL multispot (MSD) assay, antigen spotted on plate, Fab in solution; blank spot of this well 338.
In assay [11] the target is T11, rHuman Notch-1/Fc Chimera, CF (R&D Systems Cat#3647-TK) (human).
T11 chain: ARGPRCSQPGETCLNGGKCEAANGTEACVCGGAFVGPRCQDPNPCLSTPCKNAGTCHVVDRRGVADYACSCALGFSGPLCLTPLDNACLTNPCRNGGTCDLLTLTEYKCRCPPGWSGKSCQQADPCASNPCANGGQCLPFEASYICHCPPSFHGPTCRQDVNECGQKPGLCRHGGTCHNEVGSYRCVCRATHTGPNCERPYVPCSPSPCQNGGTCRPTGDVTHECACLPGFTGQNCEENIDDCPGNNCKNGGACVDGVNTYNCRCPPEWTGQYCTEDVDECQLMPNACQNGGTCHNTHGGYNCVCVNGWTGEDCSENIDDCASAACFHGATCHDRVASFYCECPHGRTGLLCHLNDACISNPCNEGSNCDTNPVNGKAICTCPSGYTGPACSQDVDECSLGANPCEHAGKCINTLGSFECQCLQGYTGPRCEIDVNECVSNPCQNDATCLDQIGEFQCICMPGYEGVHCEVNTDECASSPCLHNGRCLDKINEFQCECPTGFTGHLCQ
Described as above.

Assay [12] deals with T12, rHuman CD44/Fc Chimera, CF (R&D Systems Cat#3660-CD) (human, UniProt P16070 21-220). The assay is described as above.
The target of assay [13] is T13, rHuman P-Cadherin/Fc Chimera, CF (R&D Systems Cat#861-PC) (human, UniProt P22223 108-654). The assay is described as above.
Assay [14] has as its target T14, rHuman Erythropoietin R/Fc Chimera, CF (R&D Systems Cat#963-ER) (human, UniProt P19235 25-250). The assay is described as above.
Assay [15] addresses T15, rHuman IGF-1 sR (insulin-like growth factor-1 soluble receptor), CF (R&D Systems Cat#391-GR) (human, UniProt P08069 31-932).
T15 construct: Bought recombinant soluble receptor
Kind of assay: ECL multispot (MSD) assay, antigen spotted on plate, Fab in solution; blank spot of this well 271.

Assay [16] has as its target T16, Recombinant Human DLL4 (R&D Systems Cat#1506-D4/CF) (human, UniProt Q9NR61 27-524).
T16 construct: Bought recombinant protein; also called delta-like protein 4; rHuman DLL4
Described as above.

Assay [17] addresses T10, rHuman HGF R/c-MET/Fc Chimera, CF (R&D …). Described as above.
Assay [18] deals with T11, rHuman Notch-1/Fc Chimera, CF (R&D …). Described as above.
In assay [19] the target is T12, rHuman CD44/Fc Chimera, CF (R&D Systems …). The assay is described as above.
The target in assay [20] is T13, rHuman P-Cadherin/Fc Chimera, CF (R&D …). The description is as above.
The target in assay [21] is T14, rHuman Erythropoietin R/Fc Chimera, CF …. The description is as above.

Positions count from the first letter of the chain named. In names and notes the source's numbering stands.

B1: Fab VH1-46_IGHD6-6*01_IGHJ1*01 S102A/S103P/S104F (APF) & L6_IGKJ1*01 R91Q (Fab, V domains shown)
VH: QVQLVQSGAEVKKPGASVKVSCKASGYTFTSYYMHWVRQAPGQGLEWMGIINPSGGSTSYAQKFQGRVTMTRDTSTSTVYMELSSLRSEDTAVYYCAREEYAPFSAEYFQHWGQGTLVTVSS
VL: EIVLTQSPATLSLSPGERATLSCRASQSVSSYLAWYQQKPGQAPRLLIYDASNRATGIPARFSGSGSGTDFTLTISSLEPEDFAVYYCQQQSNWPPWTFGQGTKVEIKR
notes: Fab made in E. coli: VH cloned into Plasmid A (CH1, His6 and Flag tags), VL into Plasmid C (kappa CL); also called APF / R91Q
Take B1: the ECL signal in assay [1] turned out to be 290; in assay [2] it was 325; in assay [3], 229; in [4], 268; in assay [5], 210; in [6], 314. Also, the ECL signal in [7] amounted to 263; in assay [8] it was 817; in assay [9], 234.

B2: Fab VH1-46_IGHD6-6*01_IGHJ1*01 S102A/S103P/S104F (APF) & L6_IGKJ1*01 S92C (Fab, V domains shown)
VH: B1 VH
VL: B1 VL with Q91R, S92C
notes: Fab made in E. coli (heavy chain in plasmid A with CH1, His6 and Flag tags; kappa light chain in plasmid C); also called APF / S92C
On to B2, for which the ECL signal in [10] turned out to be 335; in assay [11], 125; in assay [12], 156; in assay [13], 265; in [14] it was 302.

B3: Fab VH1-46_IGHD6-6*01_IGHJ1*01 S102A/S103P/S104F (APF) & L6_IGKJ1*01 S92N (Fab, V domains shown)
VH: B1 VH
VL: B1 VL with Q91R, S92N
notes: Fab made in E. coli (heavy chain in plasmid A with CH1, His6 and Flag tags; kappa light chain in plasmid C); also called APF / S92N
As to B3, the ECL signal was 211 in assay [15]; 2090 in assay [16]; 405 in [17]; 193 in assay [18]; 316 in assay [19]; 240 in assay [20]. In assay [21], this molecule showed an ECL signal of 304.
